{"source": "paper PMC11533912", "about": "(Journal of Nuclear Medicine, 2024)", "key": {"[1]": {"assay": "Dosimetry: absorbed radiation dose calculation from mouse biodistribution", "settings": "for Estimated absorbed dose, pancreas / Estimated absorbed dose, red marrow / Estimated absorbed dose, urinary bladder wall / Estimated absorbed dose, kidneys / Estimated absorbed dose, spleen / Estimated absorbed dose, liver / Estimated absorbed dose, heart wall / Estimated absorbed dose, stomach (stem cell layer) / Estimated absorbed dose, lungs (alveolar–interstitial): RBE 5, female mice; for Estimated absorbed dose, red marrow: dose limit 2; for Estimated absorbed dose, urinary bladder wall: dose limit 20; for Estimated absorbed dose, kidneys: dose limit 23; for Estimated absorbed dose, spleen: dose limit 26; for Estimated absorbed dose, liver: dose limit 30; for Estimated absorbed dose, heart wall / Estimated absorbed dose, stomach (stem cell layer): dose limit 45; for Estimated absorbed dose, lungs (alveolar–interstitial): dose limit 65; for Administered activity at which 23-Gy kidney threshold is reached: female mice as printed, projected mean absorbed dose by modeling", "experimental": "Physical decay was used to extrapolate after the last time point. The human equivalent time-integrated activity coefficient for both sexes was calculated by extrapolating mouse biodistribution data to human using standard methods assuming that tissue concentration divided by whole-body concentration in mice is the same as that in humans.\nThe linear energy transfer of α-particles is approximately 400 times greater than that of photons and β-particles. This difference in energy deposition density leads to fundamentally different biologic effects. Accordingly, the absorbed doses for these different emission types should be weighted appropriately to reflect likely biologic effects. The relative biological effectiveness (RBE) is the appropriate weighting factor for deterministic effects such as tissue toxicity and tumor kill efficacy. The tissue-absorbed doses (with RBE values of 3 and 5) for ^212Pb compounds were calculated."}, "PC-3 xenograft tumors": {"system": "PC-3 xenograft tumors", "assay": "α-imaging and biodistribution in PC-3 tumors of varying size", "format": "in vivo, mice", "experimental": "For all tumor studies, 1 × 10^6 PC-3 cells were implanted subcutaneously into the right flank of each mouse in a mixture of equal volumes of HC-Matrigel (high concentration; Corning) and RPMI medium (Gibco) and grown to a volume of about 200–300 mm^3.\nImages were analyzed using Andor Solis software (ImageJ).\nFIGURE 5. Biodistribution in varying-size tumors and drug microdistribution in tumor using α-imaging of [^212Pb]Pb-DOTAM-GRPR1. […] (B) Biodistribution of drug at 4 h after injection in tumors measuring 150 mm^3 (n = 5), 300 mm^3 (n = 6), 600 mm^3 (n = 4), and 900 mm^3 (n = 3). In left panel, tissue uptake is expressed as %ID/g ± SD (P < 0.05). Right panel is expressed as %ID ± SD. H&E = hematoxylin and eosin; LWH = length × width × height."}}, "note": "Entries after “also recorded” stand apart in the source; their conditions may differ."}
{"smiles": "CC(C)C[C@H](NC(=O)C[C@H](O)[C@H](CC(C)C)NC(=O)[C@H](Cc1c[nH]cn1)NC(=O)CNC(=O)[C@@H](NC(=O)[C@H](C)NC(=O)[C@H](Cc1c[nH]c2ccccc12)NC(=O)[C@H](CCC(N)=O)NC(=O)[C@@H](Cc1ccccc1)NC(=O)CCNC(=O)CCNC(=O)CN1CCN(CC(N)=O)CCN(CC(N)=O)CCN(CC(N)=O)CC1)C(C)C)C(N)=O", "note": "[[^212Pb]Pb-DOTAM-GRPR1, metal not drawn]", "values": [{"measurement": "Radiation type contribution to total absorbed dose", "setting": "[1]", "result": "α-radiation comprised most of the total absorbed dose"}, {"measurement": "Estimated absorbed dose, pancreas", "setting": "[1]; 0.111 GBq (3 mCi)", "result": 0.287, "unit": "grays"}, {"measurement": "Estimated absorbed dose, red marrow", "setting": "[1]; 0.111 GBq (3 mCi)", "result": 0.001, "unit": "grays"}, {"measurement": "Estimated absorbed dose, urinary bladder wall", "setting": "[1]; 0.111 GBq (3 mCi)", "result": 0.021, "unit": "grays"}, {"measurement": "Estimated absorbed dose, kidneys", "setting": "[1]; 0.111 GBq (3 mCi)", "result": 0.308, "unit": "grays"}, {"measurement": "Estimated absorbed dose, spleen", "setting": "[1]; 0.111 GBq (3 mCi)", "result": 0.018, "unit": "grays"}, {"measurement": "Estimated absorbed dose, liver", "setting": "[1]; 0.111 GBq (3 mCi)", "result": 0.109, "unit": "grays"}, {"measurement": "Estimated absorbed dose, heart wall", "setting": "[1]; 0.111 GBq (3 mCi)", "result": 0.007, "unit": "grays"}, {"measurement": "Estimated absorbed dose, stomach (stem cell layer)", "setting": "[1]; 0.111 GBq (3 mCi)", "result": 0.044, "unit": "grays"}, {"measurement": "Estimated absorbed dose, lungs (alveolar–interstitial)", "setting": "[1]; 0.111 GBq (3 mCi)", "result": 0.022, "unit": "grays"}, {"measurement": "Estimated absorbed dose, pancreas", "setting": "[1]; 0.555 GBq (15 mCi)", "result": 1.434, "unit": "grays"}, {"measurement": "Estimated absorbed dose, red marrow", "setting": "[1]; 0.555 GBq (15 mCi)", "result": 0.004, "unit": "grays"}, {"measurement": "Estimated absorbed dose, urinary bladder wall", "setting": "[1]; 0.555 GBq (15 mCi)", "result": 0.103, "unit": "grays"}, {"measurement": "Estimated absorbed dose, kidneys", "setting": "[1]; 0.555 GBq (15 mCi)", "result": 1.540, "unit": "grays"}, {"measurement": "Estimated absorbed dose, spleen", "setting": "[1]; 0.555 GBq (15 mCi)", "result": 0.091, "unit": "grays"}, {"measurement": "Estimated absorbed dose, liver", "setting": "[1]; 0.555 GBq (15 mCi)", "result": 0.543, "unit": "grays"}, {"measurement": "Estimated absorbed dose, heart wall", "setting": "[1]; 0.555 GBq (15 mCi)", "result": 0.036, "unit": "grays"}, {"measurement": "Estimated absorbed dose, stomach (stem cell layer)", "setting": "[1]; 0.555 GBq (15 mCi)", "result": 0.219, "unit": "grays"}, {"measurement": "Estimated absorbed dose, lungs (alveolar–interstitial)", "setting": "[1]; 0.555 GBq (15 mCi)", "result": 0.108, "unit": "grays"}, {"measurement": "Estimated absorbed dose, pancreas", "setting": "[1]; 1.110 GBq (30 mCi)", "result": 2.867, "unit": "grays"}, {"measurement": "Estimated absorbed dose, red marrow", "setting": "[1]; 1.110 GBq (30 mCi)", "result": 0.008, "unit": "grays"}, {"measurement": "Estimated absorbed dose, urinary bladder wall", "setting": "[1]; 1.110 GBq (30 mCi)", "result": 0.206, "unit": "grays"}, {"measurement": "Estimated absorbed dose, kidneys", "setting": "[1]; 1.110 GBq (30 mCi)", "result": 3.080, "unit": "grays"}, {"measurement": "Estimated absorbed dose, spleen", "setting": "[1]; 1.110 GBq (30 mCi)", "result": 0.183, "unit": "grays"}, {"measurement": "Estimated absorbed dose, liver", "setting": "[1]; 1.110 GBq (30 mCi)", "result": 1.086, "unit": "grays"}, {"measurement": "Estimated absorbed dose, heart wall", "setting": "[1]; 1.110 GBq (30 mCi)", "result": 0.071, "unit": "grays"}, {"measurement": "Estimated absorbed dose, stomach (stem cell layer)", "setting": "[1]; 1.110 GBq (30 mCi)", "result": 0.438, "unit": "grays"}, {"measurement": "Estimated absorbed dose, lungs (alveolar–interstitial)", "setting": "[1]; 1.110 GBq (30 mCi)", "result": 0.216, "unit": "grays"}, {"measurement": "Dose-limiting organ", "setting": "[1]; calculated mean effective absorbed dose", "result": "kidney as the dose-limiting organ; also recorded: the kidneys were shown to be dose-limiting"}, {"measurement": "Administered activity at which 23-Gy kidney threshold is reached", "setting": "[1]; RBE 3", "result": 13.6, "unit": "GBq"}, {"measurement": "Administered activity at which 23-Gy kidney threshold is reached", "setting": "[1]; RBE 5", "result": 8.3, "unit": "GBq"}, {"measurement": "Organs with highest absorbed doses", "setting": "[1]; male and female mice", "result": "the kidneys and pancreas revealed the highest doses for both male and female animals; also recorded: The kidneys and pancreas received the highest dose"}, {"measurement": "Estimated absorbed dose, pancreas", "setting": "[1]; maximum 8.29 GBq (224.05 mCi)", "result": 21.42, "unit": "grays"}, {"measurement": "Estimated absorbed dose, red marrow", "setting": "[1]; maximum 8.29 GBq (224.05 mCi)", "result": 0.06, "unit": "grays"}, {"measurement": "Estimated absorbed dose, urinary bladder wall", "setting": "[1]; maximum 8.29 GBq (224.05 mCi)", "result": 1.54, "unit": "grays"}, {"measurement": "Estimated absorbed dose, kidneys", "setting": "[1]; maximum 8.29 GBq (224.05 mCi)", "result": 23.00, "unit": "grays"}, {"measurement": "Estimated absorbed dose, spleen", "setting": "[1]; maximum 8.29 GBq (224.05 mCi)", "result": 1.37, "unit": "grays"}, {"measurement": "Estimated absorbed dose, liver", "setting": "[1]; maximum 8.29 GBq (224.05 mCi)", "result": 8.11, "unit": "grays"}, {"measurement": "Estimated absorbed dose, heart wall", "setting": "[1]; maximum 8.29 GBq (224.05 mCi)", "result": 0.53, "unit": "grays"}, {"measurement": "Estimated absorbed dose, stomach (stem cell layer)", "setting": "[1]; maximum 8.29 GBq (224.05 mCi)", "result": 3.27, "unit": "grays"}, {"measurement": "Estimated absorbed dose, lungs (alveolar–interstitial)", "setting": "[1]; maximum 8.29 GBq (224.05 mCi)", "result": 1.61, "unit": "grays"}, {"measurement": "Correlation of tumor volume and tumor uptake", "setting": "PC-3 xenograft tumors; 4 h after injection, tumors 150 (n = 5), 300 (n = 6), 600 (n = 4), 900 mm^3 (n = 3), visible in %ID/g but not in %ID", "result": "negative correlation between tumor volume and tumor uptake; also recorded: lower tumor uptake in large tumors (%ID/g but not %ID)"}, {"measurement": "Microdistribution in PC-3 tumors (α-imaging, H&E)", "setting": "PC-3 xenograft tumors; tumor sizes up to 900 mm^3, except necrotic areas", "result": "homogeneous distribution of the drug at various tumor sizes of up to 900 mm^3, except for the necrotic areas; also recorded: homogeneous microdistribution"}]}
